In publication PMC3314626, “Crystal Structures of the Tetratricopeptide Repeat Domains of Kinesin Light Chains: Insight into Cargo Recognition Mechanisms” (PLoS ONE, 2012):

Target: T1, KLC2-TPR S328N mutant (human, UniProt Q9H0B6-1 217-480, S328N)
T1 construct: kinesin light chain 2 (KLC2), human, TPR domain, residues 217-480 of GenBank NP_073733, with S328N; made from the KLC2-TPR construct with a QuickChange kit; also called KLC2-S328N; not shown: His6 (from the vector pET28-LIC, modified)
Assay: ITC; peptide (1-3 mM) in the syringe injected into 60-130 uM KLC1-TPR or KLC2-TPR (or mutant) in the cell; 25 C; 20 mM Bis-Tris pH 6.5, 500 mM NaCl, 0.5 mM TCEP; one-site binding model
Details: both partners purified

T1 sequence (Q9H0B6 217-480 S328N): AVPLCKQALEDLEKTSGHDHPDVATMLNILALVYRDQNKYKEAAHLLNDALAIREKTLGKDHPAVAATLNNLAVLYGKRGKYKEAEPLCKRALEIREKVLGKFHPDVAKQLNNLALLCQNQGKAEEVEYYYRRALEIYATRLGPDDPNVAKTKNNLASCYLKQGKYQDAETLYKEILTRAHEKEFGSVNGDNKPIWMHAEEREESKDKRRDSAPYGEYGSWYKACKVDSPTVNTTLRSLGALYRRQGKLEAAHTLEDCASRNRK

Kd: 18.7 µM | dH: -15.9 kcal/mol | stoichiometry N: 1.18
B1: JIP1 peptide (C-terminal residues of JNK-interacting protein 1) (peptide)
peptide: Ac-EYTCPTEDIYLE-OH
notes: also called JIP peptide; source: synthetic peptide (Tufts University Core Facility)
